The text below walks through data of the supplement of paper PMC9112550, “Optimization of the antimicrobial peptide Bac7 by deep mutational scanning” (BMC Biology, 2022).
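Note: peptides expressed intracellularly from a pBAD plasmid library in pooled LB shake-flask culture, induced with 0.3% L-arabinose, DNA abundance read by NGS, three biological replicates, DESeq2 with apeglm shrinkage.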

The data set relates to Escherichia coli TOP10. The experiment in a line: shrunken log2 fold change of peptide-encoding DNA abundance (4.5 h post-induction vs induction); higher = less antimicrobial activity (less host growth inhibition). As to conditions: time post-induction: 4.5 h; library: site-saturation at positions 5, 18, 19, 20.
On to RRIRGRPPRLPRPRPRPDFWPRP, for which the “shrunken log2 fold change” value stood at 0.593.
In the case of RRIRERPPRLPRPRPRPMTSPRP, the “shrunken log2 fold change” value is -0.212.
Turning to RRIRSRPPRLPRPRPRPQTRPRP, the “shrunken log2 fold change” value came to 0.181.
RRIRWRPPRLPRPRPRPIKNPRP: the “shrunken log2 fold change” value was 0.136.
As to RRIRVRPPRLPRPRPRPMAHPRP, the “shrunken log2 fold change” value came to 0.00201.
As to RRIRERPPRLPRPRPRPHTSPRP, the “shrunken log2 fold change” value was -0.122.
Take RRIRKRPPRLPRPRPRPLPTPRP: the “shrunken log2 fold change” value was 0.491.
RRIRMRPPRLPRPRPRPNRWPRP: the “shrunken log2 fold change” value came out at 0.394.
As for RRIRCRPPRLPRPRPRPPWNPRP, the figure is -0.0539; as for RRIRMRPPRLPRPRPRPLPNPRP, 0.098.
Next, RRIRRRPPRLPRPRPRPTKFPRP: 0.0982; RRIRKRPPRLPRPRPRPSYNPRP: -0.397; RRIRLRPPRLPRPRPRPSHWPRP: -0.0446.
With RRIRPRPPRLPRPRPRPRASPRP, the “shrunken log2 fold change” value is 0.548.
As for RRIRIRPPRLPRPRPRPHCPPRP, the figure is -0.102.
With RRIRDRPPRLPRPRPRPRQNPRP, the “shrunken log2 fold change” value was 0.00972.
With RRIRLRPPRLPRPRPRPPLFPRP, the “shrunken log2 fold change” value amounted to 0.412.
Turning to RRIRQRPPRLPRPRPRPEMNPRP, the “shrunken log2 fold change” value was 0.0404.
RRIRSRPPRLPRPRPRPKKPPRP: the “shrunken log2 fold change” value was 0.0165.
As for RRIRHRPPRLPRPRPRPIMHPRP, the figure is -0.375.
As to RRIRIRPPRLPRPRPRPPQMPRP, the “shrunken log2 fold change” value is -0.0135.
With RRIRKRPPRLPRPRPRPHSQPRP, the “shrunken log2 fold change” value was -0.142.
Next, RRIRFRPPRLPRPRPRPECMPRP: 0.0416.
For the sequence RRIRSRPPRLPRPRPRPLHWPRP, the “shrunken log2 fold change” value was found to be 0.197.
Next, RRIRTRPPRLPRPRPRPRDAPRP: 0.881.
RRIRCRPPRLPRPRPRPQQHPRP: the “shrunken log2 fold change” value is -0.113.
For RRIRRRPPRLPRPRPRPWSGPRP, the “shrunken log2 fold change” value is 0.0397.
Turning to RRIRERPPRLPRPRPRPDFRPRP, the “shrunken log2 fold change” value was -0.0858.
Next, RRIRHRPPRLPRPRPRPANTPRP: -0.0313; RRIRVRPPRLPRPRPRPPGDPRP: 0.12; RRIRIRPPRLPRPRPRPHILPRP: -1.
Regarding RRIRKRPPRLPRPRPRPFYTPRP, the “shrunken log2 fold change” value was -0.109.
With RRIRPRPPRLPRPRPRPYMCPRP, the “shrunken log2 fold change” value is -0.714.
In the case of RRIRRRPPRLPRPRPRPLKKPRP, the “shrunken log2 fold change” value was 0.169.
As for RRIRVRPPRLPRPRPRPEQYPRP, the figure is -0.394; as for RRIRMRPPRLPRPRPRPTANPRP, 0.921.
Consider RRIRKRPPRLPRPRPRPPDPPRP, for which the “shrunken log2 fold change” value was 0.889.
In the case of RRIRSRPPRLPRPRPRPHLEPRP, the “shrunken log2 fold change” value was -0.395.
In the case of RRIRARPPRLPRPRPRPGRHPRP, the “shrunken log2 fold change” value was 0.159.
As for RRIRCRPPRLPRPRPRPIATPRP, the “shrunken log2 fold change” value was 0.366.
Next, RRIRQRPPRLPRPRPRPAWGPRP: 0.34; RRIRGRPPRLPRPRPRPTHSPRP: 0.587; RRIRNRPPRLPRPRPRPPIEPRP: 0.0957.
For the sequence RRIRCRPPRLPRPRPRPLLGPRP, the “shrunken log2 fold change” value came to 0.201.
Next, RRIRKRPPRLPRPRPRPLSCPRP: 0.0262; RRIRTRPPRLPRPRPRPDGGPRP: -0.145; RRIRCRPPRLPRPRPRPNFPPRP: 0.346.
On to RRIRDRPPRLPRPRPRPSTHPRP, for which the “shrunken log2 fold change” value is -0.247.
Consider RRIRQRPPRLPRPRPRPVWTPRP, for which the “shrunken log2 fold change” value came out at 0.0102.
In the case of RRIRWRPPRLPRPRPRPVCAPRP, the “shrunken log2 fold change” value was found to be 0.553.
As for RRIRQRPPRLPRPRPRPNNTPRP, the figure is -0.578; as for RRIRVRPPRLPRPRPRPVCSPRP, -0.11.
Consider RRIRFRPPRLPRPRPRPMLPPRP, for which the “shrunken log2 fold change” value is -0.184.
As for RRIRNRPPRLPRPRPRPECIPRP, the figure is 2.1; as for RRIRVRPPRLPRPRPRPQQDPRP, 0.151.
For the sequence RRIRVRPPRLPRPRPRPIWLPRP, the “shrunken log2 fold change” value was -0.106.
Next, RRIRARPPRLPRPRPRPKCSPRP: 0.0215; RRIRMRPPRLPRPRPRPLKSPRP: 0.11; RRIRDRPPRLPRPRPRPHGLPRP: -0.0404.
Take RRIRGRPPRLPRPRPRPGNLPRP: the “shrunken log2 fold change” value is -0.639.
Next, RRIRARPPRLPRPRPRPISMPRP: 0.0208.
As to RRIRSRPPRLPRPRPRPVSYPRP, the “shrunken log2 fold change” value was -0.0884.
Consider RRIRNRPPRLPRPRPRPTLWPRP, for which the “shrunken log2 fold change” value is 0.326.
For the sequence RRIRWRPPRLPRPRPRPLEPPRP, the “shrunken log2 fold change” value was 0.676.
As to RRIRYRPPRLPRPRPRPHIAPRP, the “shrunken log2 fold change” value was -0.408.
Next, RRIRPRPPRLPRPRPRPLWGPRP: 0.232.
Regarding RRIRERPPRLPRPRPRPHDEPRP, the “shrunken log2 fold change” value turned out to be 0.00178.
As for RRIRGRPPRLPRPRPRPEPWPRP, the figure is 0.655; as for RRIRNRPPRLPRPRPRPPECPRP, 0.015; as for RRIRFRPPRLPRPRPRPHHVPRP, -0.323.
Next, RRIRKRPPRLPRPRPRPLWYPRP: -0.511.
For the sequence RRIRGRPPRLPRPRPRPQNWPRP, the “shrunken log2 fold change” value came out at 0.0915.
Turning to RRIRLRPPRLPRPRPRPAYQPRP, the “shrunken log2 fold change” value is -0.142.
On to RRIRPRPPRLPRPRPRPNDTPRP, for which the “shrunken log2 fold change” value is -0.338.
Take RRIRIRPPRLPRPRPRPWSLPRP: the “shrunken log2 fold change” value was -0.449.
Next, RRIRWRPPRLPRPRPRPVYHPRP: 0.161.
Take RRIRYRPPRLPRPRPRPKMKPRP: the “shrunken log2 fold change” value was -0.404.
For the sequence RRIRKRPPRLPRPRPRPYVRPRP, the “shrunken log2 fold change” value stood at 0.00408.
As to RRIRLRPPRLPRPRPRPQSDPRP, the “shrunken log2 fold change” value was -0.205.
Consider RRIRARPPRLPRPRPRPSNIPRP, for which the “shrunken log2 fold change” value is -0.447.
RRIRPRPPRLPRPRPRPLSCPRP: the “shrunken log2 fold change” value is -0.0219.
Turning to RRIRKRPPRLPRPRPRPAARPRP, the “shrunken log2 fold change” value turned out to be 0.742.
RRIRQRPPRLPRPRPRPMGVPRP: the “shrunken log2 fold change” value was -0.00411.
Turning to RRIRCRPPRLPRPRPRPGAYPRP, the “shrunken log2 fold change” value is -0.319.
On to RRIRLRPPRLPRPRPRPMLTPRP, for which the “shrunken log2 fold change” value is 0.0606.
For RRIRGRPPRLPRPRPRPICKPRP, the “shrunken log2 fold change” value amounted to 0.616.
Regarding RRIRTRPPRLPRPRPRPKYEPRP, the “shrunken log2 fold change” value was -0.144.
Regarding RRIRCRPPRLPRPRPRPEQEPRP, the “shrunken log2 fold change” value was -0.0332.
In the case of RRIRTRPPRLPRPRPRPIDFPRP, the “shrunken log2 fold change” value was 0.0107.
On to RRIRKRPPRLPRPRPRPLFHPRP, for which the “shrunken log2 fold change” value came to 0.0214.
As for RRIRARPPRLPRPRPRPVGQPRP, the figure is 0.225.
As for RRIRARPPRLPRPRPRPILLPRP, the figure is -0.293.
As to RRIRYRPPRLPRPRPRPDWFPRP, the “shrunken log2 fold change” value was -0.987.
In the case of RRIRRRPPRLPRPRPRPVSNPRP, the “shrunken log2 fold change” value is -0.111.
As to RRIRMRPPRLPRPRPRPYQTPRP, the “shrunken log2 fold change” value was -0.0231.
Regarding RRIRYRPPRLPRPRPRPEGCPRP, the “shrunken log2 fold change” value amounted to 0.204.
With RRIRQRPPRLPRPRPRPMNYPRP, the “shrunken log2 fold change” value is -0.182.
RRIRSRPPRLPRPRPRPNAPPRP: the “shrunken log2 fold change” value is 0.0774.
With RRIRCRPPRLPRPRPRPEPRPRP, the “shrunken log2 fold change” value stood at 0.61.
On to RRIRGRPPRLPRPRPRPPQWPRP, for which the “shrunken log2 fold change” value was 0.801.
Turning to RRIRNRPPRLPRPRPRPDILPRP, the “shrunken log2 fold change” value was -0.156.
Turning to RRIRNRPPRLPRPRPRPHLWPRP, the “shrunken log2 fold change” value turned out to be 0.0922.
As to RRIRLRPPRLPRPRPRPGQRPRP, the “shrunken log2 fold change” value was determined as 0.0889.
As for RRIRSRPPRLPRPRPRPETNPRP, the “shrunken log2 fold change” value was -0.0626.
On to RRIRKRPPRLPRPRPRPFILPRP, for which the “shrunken log2 fold change” value was -0.0304.
As to RRIRLRPPRLPRPRPRPDMQPRP, the “shrunken log2 fold change” value was -0.0583.
As for RRIRVRPPRLPRPRPRPKHCPRP, the “shrunken log2 fold change” value was 0.0148.
As for RRIRHRPPRLPRPRPRPNRGPRP, the figure is -0.123; as for RRIRKRPPRLPRPRPRPTRCPRP, 0.876.
Turning to RRIRVRPPRLPRPRPRPTSYPRP, the “shrunken log2 fold change” value is -0.45.
As for RRIRIRPPRLPRPRPRPDAMPRP, the “shrunken log2 fold change” value is -0.112.
For the sequence RRIRLRPPRLPRPRPRPGTNPRP, the “shrunken log2 fold change” value was -0.0983.
As for RRIRWRPPRLPRPRPRPHIDPRP, the “shrunken log2 fold change” value was -0.466.
Turning to RRIRYRPPRLPRPRPRPTFLPRP, the “shrunken log2 fold change” value is -0.495.
For the sequence RRIRDRPPRLPRPRPRPDAFPRP, the “shrunken log2 fold change” value was 0.297.
In the case of RRIRHRPPRLPRPRPRPERYPRP, the “shrunken log2 fold change” value is -0.0389.
As for RRIRNRPPRLPRPRPRPQQPPRP, the figure is 0.0468; as for RRIRNRPPRLPRPRPRPYAAPRP, -0.4; as for RRIRRRPPRLPRPRPRPNRDPRP, -0.062.
On to RRIRGRPPRLPRPRPRPDTDPRP, for which the “shrunken log2 fold change” value was found to be 1.01.
Next, RRIRDRPPRLPRPRPRPDYCPRP: -0.045; RRIRHRPPRLPRPRPRPCTIPRP: -0.0935; RRIRRRPPRLPRPRPRPYFFPRP: -0.0972.
Take RRIRSRPPRLPRPRPRPQILPRP: the “shrunken log2 fold change” value is -0.0216.
In the case of RRIRERPPRLPRPRPRPNCHPRP, the “shrunken log2 fold change” value is -0.336.
